Laboratory results taken from patent publication US20120101255A1.

Target: Recombinant Cx43CT (carboxyl terminal domain of rat connexin43, residues 255-382, preceded by GPLG) (rat) (UniProt P08050)
Experiment: SPR on the carboxyl terminal domain of Cx43, peptide at 1.0 mM

Recombinant Cx43CT (carboxyl terminal domain of rat connexin43, residues 255-382, preceded by GPLG) (rat), sequence (P08050 other isoform, or with tags, fused parts or gaps limits assumed): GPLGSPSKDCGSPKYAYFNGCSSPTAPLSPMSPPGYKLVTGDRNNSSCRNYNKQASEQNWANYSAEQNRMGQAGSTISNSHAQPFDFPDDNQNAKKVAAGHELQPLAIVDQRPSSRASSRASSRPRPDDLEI

AcRNP-NH2 (Identification No. 2502) (peptide)
Response (arbitrary units): 4.6
